Source: paper PMC5379037

Biological target: GST-CaWRKYa (Capsicum annuum, UniProt Q1XD53 1-546)
Test: EMSA; 5 ug protein; EMSA: 4 C, 30 min, 5% native polyacrylamide gel in 0.5x TBE; 5 ug protein (0.5 ug in Fig. S5b); binding buffer, salt and pH not stated

Sequence of GST-CaWRKYa (Q1XD53 entry or part of it): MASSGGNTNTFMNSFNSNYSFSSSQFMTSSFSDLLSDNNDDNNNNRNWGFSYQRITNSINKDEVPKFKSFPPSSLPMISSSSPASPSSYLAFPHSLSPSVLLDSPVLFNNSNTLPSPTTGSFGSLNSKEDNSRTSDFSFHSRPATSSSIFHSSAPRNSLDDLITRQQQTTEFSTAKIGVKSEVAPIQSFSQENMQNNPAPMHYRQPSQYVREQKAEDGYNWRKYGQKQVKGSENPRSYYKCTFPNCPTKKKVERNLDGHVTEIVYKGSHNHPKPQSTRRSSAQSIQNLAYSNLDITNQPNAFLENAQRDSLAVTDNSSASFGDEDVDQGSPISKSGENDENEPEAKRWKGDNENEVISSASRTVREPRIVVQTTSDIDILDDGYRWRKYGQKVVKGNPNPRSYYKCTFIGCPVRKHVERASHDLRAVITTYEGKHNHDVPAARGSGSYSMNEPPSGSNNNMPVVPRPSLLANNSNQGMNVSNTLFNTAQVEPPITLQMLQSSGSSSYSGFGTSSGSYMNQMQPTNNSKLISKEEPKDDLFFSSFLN

| Binder | binding result |
| --- | --- |
| mW-box probe (dsDNA) DNA 1: CGTAGACGGTAGACGGAGTAGACGTTTTA DNA 2: TAAAACGTCTACTCCGTCTACCGTCTACG | no binding |
| W-box probe (dsDNA) DNA 1: CGTTGACCGTTGACCGAGTTGACTTTTTA DNA 2: TAAAAAGTCAACTCGGTCAACGGTCAACG | binds |
